B1: hBDB-4G8.1 (antibody, V domains shown)
VH: EVQLVQSGSELKKPGASVKVSCKASGYTFTNYGMYWVRQAPGQGLEWMGWINTETGKPTYADDFKGRFVFSLDTSVSTAYLQISSLKAEDTAVYYCARTNYYYRSYIFYFDYWGQGTMVTVSS
VL: AIQLTQSPSSLSASVGDRVTITCRASESVSTHMHWYQQKPGKAPKLLIYGASNLESGVPSRFSGSGSGTDFTLTISSLQPEDFATYYCQQSWNDPFTFGQGTKLEIK
notes: Humanized IgG made from pHybE vectors in HEK293 cells
B2: hBDB-4G8.4 (antibody, V domains shown)
VH: EIQLVQSGSELKKPGASVKVSCKASGYTFTNYGMYWVRQAPGQGLEYMGWINTETGKPTYADDFKGRFVFSLDTSVSTAYLQISSLKAEDTAVYFCARTNYYYRSYIFYFDYWGQGTMVTVSS
VL: AIQLTQSPSSLSASVGDRVTITCRASESVSTHMHWYQQKPGKAPKLLIYGASNLESGVPSRFSGSGSGTDFTLTISSLQPEDFATYYCQQSWNDPFTFGQGTKLEIK
notes: as for B1
B3: hBDB-4G8.2 (antibody, V domains shown)
VH: EVQLVQSGSELKKPGASVKVSCKASGYTFTNYGMYWVRQAPGQGLEWMGWINTETGKPTYADDFKGRFVFSLDTSVSTAYLQISSLKAEDTAVYYCARTNYYYRSYIFYFDYWGQGTMVTVSS
VL: ATQLTQSPSLSASVGDRVTITCRASESVSTHMHWYQQKPGKQPKLLIYGASNLESGVPSRFSGSGSGTDFTLTISSLQPEDFATYFCQQSWNDPFTFGQGTKLEIK
notes: as for B1
B4: hBDB-4G8.5 (antibody, V domains shown)
VH: EIQLVQSGSELKKPGASVKVSCKASGYTFTNYGMYWVRQAPGQGLEYMGWINTETGKPTYADDFKGRFVFSLDTSVSTAYLQISSLKAEDTAVYFCARTNYYYRSYIFYFDYWGQGTMVTVSS
VL: ATQLTQSPSLSASVGDRVTITCRASESVSTHMHWYQQKPGKQPKLLIYGASNLESGVPSRFSGSGSGTDFTLTISSLQPEDFATYFCQQSWNDPFTFGQGTKLEIK
notes: as for B1
B5: hBDB-4G8.3 (antibody, V domains shown)
VH: EVQLVQSGSELKKPGASVKVSCKASGYTFTNYGMYWVRQAPGQGLEWMGWINTETGKPTYADDFKGRFVFSLDTSVSTAYLQISSLKAEDTAVYYCARTNYYYRSYIFYFDYWGQGTMVTVSS
VL: DTVLTQSPATLSLSPGERATLSCRASESVSTHMHWYQQKPGQAPRLLIYGASNLESGVPARFSGSGSGTDFTLTISSLEPEDFAVYFCQQSWNDPFTFGQGTKLEIK
notes: as for B1
B6: hBDB-4G8.6 (antibody, V domains shown)
VH: EIQLVQSGSELKKPGASVKVSCKASGYTFTNYGMYWVRQAPGQGLEYMGWINTETGKPTYADDFKGRFVFSLDTSVSTAYLQISSLKAEDTAVYFCARTNYYYRSYIFYFDYWGQGTMVTVSS
VL: DTVLTQSPATLSLSPGERATLSCRASESVSTHMHWYQQKPGQAPRLLIYGASNLESGVPARFSGSGSGTDFTLTISSLEPEDFAVYFCQQSWNDPFTFGQGTKLEIK
notes: as for B1
B7: hBDB-4G8.7 (antibody, V domains shown)
VH: EVQLVQSGAEVKKPGASVKVSCKASGYTFTNYGMYWVRQAPGQGLEWMGWINTETGKPTYADDFKGRVTMTTDTSTSTAYMELRSLRSDDTAVYYCARTNYYYRSYIFYFDYWGQGTMVTVSS
VL: AIQLTQSPSSLSASVGDRVTITCRASESVSTHMHWYQQKPGKAPKLLIYGASNLESGVPSRFSGSGSGTDFTLTISSLQPEDFATYYCQQSWNDPFTFGQGTKLEIK
notes: as for B1
B8: hBDB-4G8.8 (antibody, V domains shown)
VH: EVQLVQSGAEVKKPGASVKVSCKASGYTFTNYGMYWVRQAPGQGLEWMGWINTETGKPTYADDFKGRVTMTTDTSTSTAYMELRSLRSDDTAVYYCARTNYYYRSYIFYFDYWGQGTMVTVSS
VL: ATQLTQSPSLSASVGDRVTITCRASESVSTHMHWYQQKPGKQPKLLIYGASNLESGVPSRFSGSGSGTDFTLTISSLQPEDFATYFCQQSWNDPFTFGQGTKLEIK
notes: as for B1
B9: hBDB-4G8.9 (antibody, V domains shown)
VH: EVQLVQSGAEVKKPGASVKVSCKASGYTFTNYGMYWVRQAPGQGLEWMGWINTETGKPTYADDFKGRVTMTTDTSTSTAYMELRSLRSDDTAVYYCARTNYYYRSYIFYFDYWGQGTMVTVSS
VL: DTVLTQSPATLSLSPGERATLSCRASESVSTHMHWYQQKPGQAPRLLIYGASNLESGVPARFSGSGSGTDFTLTISSLEPEDFAVYFCQQSWNDPFTFGQGTKLEIK
notes: as for B1
B10: hBDB-4G8.10 (antibody, V domains shown)
VH: EIQLVQSGAEVKKPGASVKVSCKASGYTFTNYGMYWVRQAPGQGLEYMGWINTETGKPTYADDFKGRFTFTLDTSTSTAYMELRSLRSDDTAVYFCARTNYYYRSYIFYFDYWGQGTMVTVSS
VL: AIQLTQSPSSLSASVGDRVTITCRASESVSTHMHWYQQKPGKAPKLLIYGASNLESGVPSRFSGSGSGTDFTLTISSLQPEDFATYYCQQSWNDPFTFGQGTKLEIK
notes: as for B1
B11: hBDB-4G8.11 (antibody, V domains shown)
VH: EIQLVQSGAEVKKPGASVKVSCKASGYTFTNYGMYWVRQAPGQGLEYMGWINTETGKPTYADDFKGRFTFTLDTSTSTAYMELRSLRSDDTAVYFCARTNYYYRSYIFYFDYWGQGTMVTVSS
VL: ATQLTQSPSLSASVGDRVTITCRASESVSTHMHWYQQKPGKQPKLLIYGASNLESGVPSRFSGSGSGTDFTLTISSLQPEDFATYFCQQSWNDPFTFGQGTKLEIK
notes: as for B1
B12: hBDB-4G8.12 (antibody, V domains shown)
VH: EIQLVQSGAEVKKPGASVKVSCKASGYTFTNYGMYWVRQAPGQGLEYMGWINTETGKPTYADDFKGRFTFTLDTSTSTAYMELRSLRSDDTAVYFCARTNYYYRSYIFYFDYWGQGTMVTVSS
VL: DTVLTQSPATLSLSPGERATLSCRASESVSTHMHWYQQKPGQAPRLLIYGASNLESGVPARFSGSGSGTDFTLTISSLEPEDFAVYFCQQSWNDPFTFGQGTKLEIK
notes: as for B1
B13: hBDB-4G8.13 (antibody, V domains shown)
VH: EIQLVQSGTEVKKPGESLKISCKASGYTFTNYGMYWVKQMPGKGLEYMGWINTETGKPTYADDFKGRFTFSLDKSFNTAFLQWSSLKASDTAMYFCARTNYYYRSYIFYFDYWGQGTMVTVSS
VL: ETVLTQSPATLSVSPGERATLSCRASESVSTHMHWYQQKPGQAPRLLIYGASNLESGVPARFSGSGSGTDFTLTISSLQSEDFAVYFCQQSWNDPFTFGQGTRLEIK
notes: as for B1
B14: hBDB-4G8.14 (antibody, V domains shown)
VH: EIQLVQSGGGVVQPGGSLRLSCAASGYTFTNYGMYWVKQAPGKGLEYMGWINTETGKPTYADDFKGRFTFSLDTSKSTAYLQLNSLRAEDTAVYFCARTNYYYRSYIFYFDYWGQGTLVTVSS
VL: DTVLTQSPSTLSASPGERATISCRASESVSTHMHWYQQKPGQAPKLLIYGASNLESGVPSRFSGSRSGTDFTLTISSLQPEDFAVYFCQQSWNDPFTFGQGTKVEIK
notes: as for B1
B15: hBDB-4G8.15 (antibody, V domains shown)
VH: EVQLVESGGGLVQPGGSLRLSCAASGYTFTNYGMYWVKQAPGKGLEYMGWINTETGKPTYADDFKGRFTFSLDTSKSTAYLQMNSLRAEDTAVYFCARTNYYYRSYIFYFDYWGQGTLVTVSS
VL: DTQLTQSPSSLSASVGDRVTISCRASESVSTHMHWYQQKPGKAPKLLIYGASNLESGVPSRFSGSGSGTDFTLTISSLQPEDFATYFCQQSWNDPFTFGQGTKVEIK
notes: as for B1
B16: hBEW-9A8.9 (antibody, V domains shown)
VH: EVQLVQSGAEVKKPGASVKVSCKASGYTFTNYGMYWVRQAPGQGLEWMGWINTETGKPIYADDFKGRVTMTTDTSTSTAYMELRSLRSDDTAVYYCARVDYDGSFWFAYWGQGTLVTVSS
VL: EIVLTQSPDFQSVTPKEKVTITCRASESVSTVIHWYQQKPDQSPKLLIKGASNLESGVPSRFSGSGSGTDFTLTINSLEAEDAATYYCQQHWNDPPTFGQGTKLEIK
notes: as for B1
B17: hBEW-9A8.11 (antibody, V domains shown)
VH: EVQLVQSGAEVKKPGASVKVSCKASGYTFTNYGMYWVRQAPGQGLEWMGWINTETGKPIYADDFKGRVTMTTDTSTSTAYMELRSLRSDDTAVYYCARVDYDGSFWFAYWGQGTLVTVSS
VL: DIQMTQSPSSLSASVGDRVTITCRASESVSTVIHWYQQKPGKAPKLLIYGASNLESGVPSRFSGSGSGTDFTLTISSLQPEDFATYYCQQHWNDPPTFGQGTKLEIK
notes: as for B1
B18: hBEW-9A8.12 (antibody, V domains shown)
VH: EVQLVQSGAEVKKPGASVKVSCKASGYTFTNYGMYWVRQAPGQGLEWMGWINTETGKPIYADDFKGRVTMTTDTSTSTAYMELRSLRSDDTAVYYCARVDYDGSFWFAYWGQGTLVTVSS
VL: DTQLTQSPSSLSASVGDRVTITCRASESVSTVIHWYQQKPGKQPKLLIHGASNLESGVPSRFSGSGSGTDFTLTISSLQPEDFATYFCQQHWNDPPTFGQGTKLEIK
notes: as for B1
B19: hBEW-9A8.20 (antibody, V domains shown)
VH: EIQLVQSGAEVKKPGASVKVSCKASGYTFTNYGMYWVKQAPGQGLEYMGWINTETGKPIYADDFKGRFTFTLDTSTSTAYMELRSLRSDDTAVYYCARVDYDGSFWFAYWGQGTLVTVSS
VL: ETVLTQSPATLSLSPGERATLSCRASESVSTVIHWYQQKPGQQPRLLIHGASNLESGVPARFSGSGSGTDFTLTISSLEPEDFAVYFCQQHWNDPPTFGQGTKLEIK
notes: as for B1

biological target: T1, human VEGF-A (human, UniProt P15692-4 27-191, limits assumed); assay: SPR (Biacore), antibody captured by anti-human Fc, VEGF-A injected
T1 construct: also called huVEGF-A
Procedure: For example, approximately 9000 RU of goat anti-human Fc specific polyclonal antibody (Thermo Fisher Scientific Inc., Rockford, Ill.) diluted in 10 mM sodium acetate (pH 4.5) is directly immobilized across a CM5 research grade biosensor chip using a standard amine coupling kit according to manufacturer's instructions and procedures at 25 μg/ml. Unreacted moieties on the biosensor surface were blocked with ethanolamine. For kinetic analysis, rate equations derived from the 1:1 Langmuir binding model were fitted simultaneously to multiple antigen injections (using global fit analysis) with the use of Scrubber 2 (BioLogic Software), Biacore Biaevaluation 4.0.1 software or Biacore T100 Evaluation software. Purified antibodies or DVD-Ig molecules were diluted in running buffer for capture across goat anti-human Fc reaction surfaces. Antibodies or DVD-Ig molecules to be captured as a ligand (1 μg/ml) were injected over reaction matrices at a flow rate of 10 μl/minute. During the assay, all measurements were referenced against the capture surface alone (i.e., with no captured antibody or DVD-Ig molecule). […] The equilibrium dissociation constant KD (M) of the reaction between antibodies and the target antigen was then calculated from the kinetic rate constants by the following formula: KD=Koff/Kₒₙ. Binding was recorded as a function of time and kinetic rate constants were calculated.

T1 sequence (P15692 other isoform, or with tags, fused parts or gaps limits assumed): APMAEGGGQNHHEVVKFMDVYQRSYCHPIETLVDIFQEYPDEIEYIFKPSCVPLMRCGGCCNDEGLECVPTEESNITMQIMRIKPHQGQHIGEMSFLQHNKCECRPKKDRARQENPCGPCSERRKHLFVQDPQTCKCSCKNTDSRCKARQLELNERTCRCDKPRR

Binder | Kd | kon
B1 | 5.8 pM | 1.8e+07 M⁻¹ s⁻¹
B2 | 5.5 pM | 2.7e+07 M⁻¹ s⁻¹
B3 | 3.6 pM | 1.7e+07 M⁻¹ s⁻¹
B4 | 1.6 pM | 2.5e+07 M⁻¹ s⁻¹
B5 | 4.8 pM | 1e+07 M⁻¹ s⁻¹
B6 | 1.4 pM | 2.6e+07 M⁻¹ s⁻¹
B7 | 34 pM | 3.7e+07 M⁻¹ s⁻¹
B8 | 47 pM | 1.8e+07 M⁻¹ s⁻¹
B9 | 62 pM | 1.4e+07 M⁻¹ s⁻¹
B10 | 8.1 pM | 2.7e+07 M⁻¹ s⁻¹
B11 | 1.3 pM | 2.6e+07 M⁻¹ s⁻¹
B12 | 1.2 pM | 2.6e+07 M⁻¹ s⁻¹
B13 | 7.6 pM | 2.2e+07 M⁻¹ s⁻¹
B14 | 3.7 pM | 1.5e+07 M⁻¹ s⁻¹
B15 | 4.4 pM | 2e+07 M⁻¹ s⁻¹
B16 | 820 pM | 1e+07 M⁻¹ s⁻¹
B17 | 74 pM | 1.5e+07 M⁻¹ s⁻¹
B18 | 15 pM | 9.6e+06 M⁻¹ s⁻¹
B19 | 1.6 pM | 7.6e+06 M⁻¹ s⁻¹

— patent publication US20170015742A1 (published 2017)
